Measurements from patent publication US20200317768A1 (published 2020).

Experiments:
Experiment in all cases: SPR (BIACORE); KD of SG1 / KD of variant;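 also: relative to parent M103205H795-SG1 carrying the SG1 human heavy chain constant region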
[1] = target: T1, human FcγRIIaR extracellular domain with C-terminal His-tag (human, UniProt P12318 34-217)
T1 construct: also called human FcgRIIaR; FcγRIIa (type R)
T1 chain: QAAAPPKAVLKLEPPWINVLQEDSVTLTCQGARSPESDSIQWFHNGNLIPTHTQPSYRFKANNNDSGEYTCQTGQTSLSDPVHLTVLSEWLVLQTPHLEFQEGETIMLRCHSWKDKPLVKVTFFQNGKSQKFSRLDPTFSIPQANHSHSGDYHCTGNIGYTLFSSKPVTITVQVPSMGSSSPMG

[2] = target: T2, cynomolgus monkey FcγRIIa3 extracellular domain with C-terminal His-tag (cynomolgus monkey)
T2 construct: also called cyno FcgRIIa3; cynoFcγRIIa3
T2 chain: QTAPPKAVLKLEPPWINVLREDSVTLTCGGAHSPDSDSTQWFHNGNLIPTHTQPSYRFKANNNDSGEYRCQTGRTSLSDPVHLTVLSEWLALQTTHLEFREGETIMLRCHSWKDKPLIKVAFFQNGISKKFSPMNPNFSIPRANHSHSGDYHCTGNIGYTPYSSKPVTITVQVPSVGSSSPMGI

[3] = target: T3, human FcγRIIIaV extracellular domain with C-terminal His-tag (human, UniProt P08637 17-208)
T3 construct: also called human FcgRIIIaV

[4] = target: T4, cynomolgus monkey FcγRIIa1 extracellular domain with C-terminal His-tag (cynomolgus monkey)
T4 construct: also called cyno FcgRIIa1; cynoFcγRIIa1
T4 chain: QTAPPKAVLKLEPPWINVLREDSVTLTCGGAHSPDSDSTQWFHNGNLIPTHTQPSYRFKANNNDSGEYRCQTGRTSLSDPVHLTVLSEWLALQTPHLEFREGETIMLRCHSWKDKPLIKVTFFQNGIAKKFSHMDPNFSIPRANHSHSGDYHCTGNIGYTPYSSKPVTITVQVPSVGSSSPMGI

[5] = target: T5, human FcγRIIaH extracellular domain with C-terminal His-tag (human, UniProt P12318 34-217)
T5 construct: also called human FcgRIIaH; FcγRIIa (type H)
T5 sequence: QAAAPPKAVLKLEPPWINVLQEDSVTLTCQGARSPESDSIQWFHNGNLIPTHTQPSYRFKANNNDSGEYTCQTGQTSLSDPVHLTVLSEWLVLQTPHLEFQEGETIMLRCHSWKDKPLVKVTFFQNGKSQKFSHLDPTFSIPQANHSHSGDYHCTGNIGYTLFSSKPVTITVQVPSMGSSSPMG

[6] = target: T6, cynomolgus monkey FcγRIIIaS extracellular domain with C-terminal His-tag (cynomolgus monkey, UniProt Q8SPW2 21-206 at identity 1.00))
T6 construct: also called cyno FcgRIIIaS; cynoFcγRIIIaS
T6 chain: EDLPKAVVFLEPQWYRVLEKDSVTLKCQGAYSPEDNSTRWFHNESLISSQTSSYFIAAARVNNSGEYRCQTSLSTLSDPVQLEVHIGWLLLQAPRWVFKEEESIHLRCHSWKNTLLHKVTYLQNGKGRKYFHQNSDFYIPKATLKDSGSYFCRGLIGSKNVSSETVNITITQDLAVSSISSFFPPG

[7] = target: T7, human FcγRIIb extracellular domain with C-terminal His-tag (human, UniProt P31994 43-217)
T7 construct: also called human FcgRIIb
T7 sequence: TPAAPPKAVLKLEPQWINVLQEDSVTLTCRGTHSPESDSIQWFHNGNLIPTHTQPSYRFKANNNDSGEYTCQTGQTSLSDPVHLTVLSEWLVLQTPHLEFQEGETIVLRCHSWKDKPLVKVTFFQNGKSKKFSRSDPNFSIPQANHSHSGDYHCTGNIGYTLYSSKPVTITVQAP

[8] = target: T8, cynomolgus monkey FcγRIIb extracellular domain with C-terminal His-tag (cynomolgus monkey)
T8 construct: also called cyno FcgRIIb; cynoFcγRIIb
T8 chain: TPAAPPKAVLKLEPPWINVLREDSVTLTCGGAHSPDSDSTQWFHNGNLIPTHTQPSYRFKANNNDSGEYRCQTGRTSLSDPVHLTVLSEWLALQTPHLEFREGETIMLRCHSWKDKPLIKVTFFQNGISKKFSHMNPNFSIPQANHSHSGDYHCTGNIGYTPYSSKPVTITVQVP

T3 sequence (P08637 17-208 F176V): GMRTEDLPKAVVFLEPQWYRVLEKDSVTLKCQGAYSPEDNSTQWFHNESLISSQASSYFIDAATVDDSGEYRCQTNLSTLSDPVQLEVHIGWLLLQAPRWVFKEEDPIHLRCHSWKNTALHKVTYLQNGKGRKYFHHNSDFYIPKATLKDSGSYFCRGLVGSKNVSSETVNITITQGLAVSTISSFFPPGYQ

B1: M103205H795-MY387/M103202L889-SK1 (antibody, human IgG1, kappa)
heavy: QVTLKESGPVLVKPTETLTLTCTVSGIDLSHDDISWVRQAPGKGLEWVGIISYAGSTYYASWAKGRLTISKDTSKNQVVLTMTNMDPVDTATYYCARGVPAYSHGGDLWGQGTLVTVSSASTKGPSVFPLAPSSKSTSGGTAALGCLVKDYFPEPVTVSWNSGALTSGVHTFPAVLQSSGLYSLSSVVTVPSSSLGTQTYICNVNHKPSNTKVDKKVEPKSCDKTHTCPPCPAPELLTGPVVFLFPPKPKDTLMISRTPEVTCVVVDVSDEDPEVKFNWYVDGVEVHNAKTKPREEQYNSTYRVVSVLTVLHQDWLNGKEYKCKVSNKALPKPIEKTISKAKGQPREPQVYTLPPSREEMTKNQVSLTCLVKGFYPSDIAVEWESNGQPENNYKTTPPVLDSDGSFFLYSKLTVDKSRWQQGNVFSCSVMHEALHNHYTQKSLSLSP
light: DIVMTQSPATLSLSPGERATLSCTSSQSVYHANWLSWFQQKPGQPPKLLIYWASTLAYGVPSRFSGSGSGTDFTLTISSLQPEDAATYYCAGGYGGGRYAFGQGTKVEIKRTVAAPSVFIFPPSDEQLKSGTASVVCLLNNFYPREAKVQWKVDNALQSGNSQESVTEQDSKDSTYSLSSTLTLSKADYEKHKVYACEVTHQGLSSPVTKSFNRGEC
notes: Substitutions introduced into M103205H795-SG1, expressed with M103202L889-SK1 as light chain; EU numbering
- KD fold (SG1 = 1) [1]: 3.5 fold
- KD fold (SG1 = 1) [2]: 12.1 fold
- KD fold (SG1 = 1) [3]: 0.17 fold
- KD fold (SG1 = 1) [4]: 1.4 fold
- KD fold (SG1 = 1) [5]: 2.5 fold
- KD fold (SG1 = 1) [6]: 0.14 fold
- KD fold (SG1 = 1) [7]: 2.5 fold
- KD fold (SG1 = 1) [8]: 2.2 fold

B2: M103205H795-MY400/M103202L889-SK1 (antibody, human IgG1, kappa)
heavy: QVTLKESGPVLVKPTETLTLTCTVSGIDLSHDDISWVRQAPGKGLEWVGIISYAGSTYYASWAKGRLTISKDTSKNQVVLTMTNMDPVDTATYYCARGVPAYSHGGDLWGQGTLVTVSSASTKGPSVFPLAPSSKSTSGGTAALGCLVKDYFPEPVTVSWNSGALTSGVHTFPAVLQSSGLYSLSSVVTVPSSSLGTQTYICNVNHKPSNTKVDKKVEPKSCDKTHTCPPCPAPELLTGPSVFLFPPKPKDTLMISRTPEVTCVVVDVSDEDPEVKFNWYVDGVEVHNAKTKPREEQYNSTYRVVSVLTVLHQDWLNGKEYKCKVSNKALPKEIEKTISKAKGQPREPQVYTLPPSREEMTKNQVSLTCLVKGFYPSDIAVEWESNGQPENNYKTTPPVLDSDGSFFLYSKLTVDKSRWQQGNVFSCSVMHEALHNHYTQKSLSLSP
light: DIVMTQSPATLSLSPGERATLSCTSSQSVYHANWLSWFQQKPGQPPKLLIYWASTLAYGVPSRFSGSGSGTDFTLTISSLQPEDAATYYCAGGYGGGRYAFGQGTKVEIKRTVAAPSVFIFPPSDEQLKSGTASVVCLLNNFYPREAKVQWKVDNALQSGNSQESVTEQDSKDSTYSLSSTLTLSKADYEKHKVYACEVTHQGLSSPVTKSFNRGEC
notes: as for B1
- KD fold (SG1 = 1) [1]: 1.5 fold
- KD fold (SG1 = 1) [2]: 4.5 fold
- KD fold (SG1 = 1) [3]: 0.1 fold
- KD fold (SG1 = 1) [4]: 1.8 fold
- KD fold (SG1 = 1) [5]: 1.6 fold
- KD fold (SG1 = 1) [6]: 0.15 fold
- KD fold (SG1 = 1) [7]: 1.8 fold
- KD fold (SG1 = 1) [8]: 2.9 fold

B3: M103205H795-MY392/M103202L889-SK1 (antibody, human IgG1, kappa)
heavy: QVTLKESGPVLVKPTETLTLTCTVSGIDLSHDDISWVRQAPGKGLEWVGIISYAGSTYYASWAKGRLTISKDTSKNQVVLTMTNMDPVDTATYYCARGVPAYSHGGDLWGQGTLVTVSSASTKGPSVFPLAPSSKSTSGGTAALGCLVKDYFPEPVTVSWNSGALTSGVHTFPAVLQSSGLYSLSSVVTVPSSSLGTQTYICNVNHKPSNTKVDKKVEPKSCDKTHTCPPCPAPELLTGPSVFLFPPKPKDTLMISRTPEVTCVVVDVSDEDPEVKFNWYVDGVEVHNAKTKPREEQYNLTYRVVSVLTVLHQDWLNGKEYKCKVSNKALPKPIEKTISKAKGQPREPQVYTLPPSREEMTKNQVSLTCLVKGFYPSDIAVEWESNGQPENNYKTTPPVLDSDGSFFLYSKLTVDKSRWQQGNVFSCSVMHEALHNHYTQKSLSLSP
light: DIVMTQSPATLSLSPGERATLSCTSSQSVYHANWLSWFQQKPGQPPKLLIYWASTLAYGVPSRFSGSGSGTDFTLTISSLQPEDAATYYCAGGYGGGRYAFGQGTKVEIKRTVAAPSVFIFPPSDEQLKSGTASVVCLLNNFYPREAKVQWKVDNALQSGNSQESVTEQDSKDSTYSLSSTLTLSKADYEKHKVYACEVTHQGLSSPVTKSFNRGEC
notes: as for B1
- KD fold (SG1 = 1) [1]: 2.7 fold
- KD fold (SG1 = 1) [2]: 4.4 fold
- KD fold (SG1 = 1) [3]: 0.09 fold
- KD fold (SG1 = 1) [4]: 10.7 fold
- KD fold (SG1 = 1) [5]: 1.6 fold
- KD fold (SG1 = 1) [6]: 0.09 fold
- KD fold (SG1 = 1) [7]: 2.7 fold
- KD fold (SG1 = 1) [8]: 2.6 fold

B4: M103205H795-MY388/M103202L889-SK1 (antibody, human IgG1, kappa)
heavy: QVTLKESGPVLVKPTETLTLTCTVSGIDLSHDDISWVRQAPGKGLEWVGIISYAGSTYYASWAKGRLTISKDTSKNQVVLTMTNMDPVDTATYYCARGVPAYSHGGDLWGQGTLVTVSSASTKGPSVFPLAPSSKSTSGGTAALGCLVKDYFPEPVTVSWNSGALTSGVHTFPAVLQSSGLYSLSSVVTVPSSSLGTQTYICNVNHKPSNTKVDKKVEPKSCDKTHTCPPCPAPELLTGPIVFLFPPKPKDTLMISRTPEVTCVVVDVSDEDPEVKFNWYVDGVEVHNAKTKPREEQYNSTYRVVSVLTVLHQDWLNGKEYKCKVSNKALPKPIEKTISKAKGQPREPQVYTLPPSREEMTKNQVSLTCLVKGFYPSDIAVEWESNGQPENNYKTTPPVLDSDGSFFLYSKLTVDKSRWQQGNVFSCSVMHEALHNHYTQKSLSLSP
light: DIVMTQSPATLSLSPGERATLSCTSSQSVYHANWLSWFQQKPGQPPKLLIYWASTLAYGVPSRFSGSGSGTDFTLTISSLQPEDAATYYCAGGYGGGRYAFGQGTKVEIKRTVAAPSVFIFPPSDEQLKSGTASVVCLLNNFYPREAKVQWKVDNALQSGNSQESVTEQDSKDSTYSLSSTLTLSKADYEKHKVYACEVTHQGLSSPVTKSFNRGEC
notes: as for B1
- KD fold (SG1 = 1) [1]: 4.8 fold
- KD fold (SG1 = 1) [2]: 13.1 fold
- KD fold (SG1 = 1) [3]: 0.19 fold
- KD fold (SG1 = 1) [4]: 1.5 fold
- KD fold (SG1 = 1) [5]: 2.1 fold
- KD fold (SG1 = 1) [6]: 0.23 fold
- KD fold (SG1 = 1) [7]: 3.1 fold
- KD fold (SG1 = 1) [8]: 2.4 fold

B5: M103205H795-MY389/M103202L889-SK1 (antibody, human IgG1, kappa)
heavy: QVTLKESGPVLVKPTETLTLTCTVSGIDLSHDDISWVRQAPGKGLEWVGIISYAGSTYYASWAKGRLTISKDTSKNQVVLTMTNMDPVDTATYYCARGVPAYSHGGDLWGQGTLVTVSSASTKGPSVFPLAPSSKSTSGGTAALGCLVKDYFPEPVTVSWNSGALTSGVHTFPAVLQSSGLYSLSSVVTVPSSSLGTQTYICNVNHKPSNTKVDKKVEPKSCDKTHTCPPCPAPELLTGPLVFLFPPKPKDTLMISRTPEVTCVVVDVSDEDPEVKFNWYVDGVEVHNAKTKPREEQYNSTYRVVSVLTVLHQDWLNGKEYKCKVSNKALPKPIEKTISKAKGQPREPQVYTLPPSREEMTKNQVSLTCLVKGFYPSDIAVEWESNGQPENNYKTTPPVLDSDGSFFLYSKLTVDKSRWQQGNVFSCSVMHEALHNHYTQKSLSLSP
light: DIVMTQSPATLSLSPGERATLSCTSSQSVYHANWLSWFQQKPGQPPKLLIYWASTLAYGVPSRFSGSGSGTDFTLTISSLQPEDAATYYCAGGYGGGRYAFGQGTKVEIKRTVAAPSVFIFPPSDEQLKSGTASVVCLLNNFYPREAKVQWKVDNALQSGNSQESVTEQDSKDSTYSLSSTLTLSKADYEKHKVYACEVTHQGLSSPVTKSFNRGEC
notes: as for B1
- KD fold (SG1 = 1) [1]: 5.8 fold
- KD fold (SG1 = 1) [2]: 12.1 fold
- KD fold (SG1 = 1) [3]: 0.23 fold
- KD fold (SG1 = 1) [4]: 1.6 fold
- KD fold (SG1 = 1) [5]: 2.6 fold
- KD fold (SG1 = 1) [6]: 0.24 fold
- KD fold (SG1 = 1) [7]: 4.2 fold
- KD fold (SG1 = 1) [8]: 2.6 fold
